Reference: patent US7981997B2, “Growth factor which acts through ErbB-4 RTK” (Yeda Research And Development Co., priority 2000, dated 2011)

How the values were obtained:
[1] = test system: 180-kDa ErbB receptors and MAP-kinase (Erk-1 and Erk-2) in D24 cells; experiment: Tyrosine phosphorylation and MAPK activation, immunoblotting; format: cell-based; conditions: 100 ng/ml, five minutes
Procedure: (§1) Derivatives of 32D cells expressing ErbB-4, either alone (D4 cells) or in combination with ErbB-2 (D24 cells) were incubated for 5 minutes at 37° C. with either NRG-4 or NRG-1β (each at 100 ng/ml). Whole cell extracts were then prepared, resolved by gel electrophoresis, and transferred to a nitrocellulose filter. The upper portion of the filter was immunoblotted with antibodies to phosphotyrosine (P-Tyr, the 150-200 kDa region is shown) or an antibody directed at the activated doubly phosphorylated form of the MAPK (Erk1 and Erk2, the 40-50 kDa region is shown). Antibodies were incubated with a secondary reagent coupled to horseradish peroxidase, allowing subsequent detection by chemiluminescence.
(§2) For receptor activation studies, derivatives of the 32D cell line were resuspended in phosphate-buffered solution (PBS) and incubated at 22 C for 15 minutes before adding growth factors and incubating for five minutes at 37 C. Cells were then pelleted and lysed in ice cold solubilization buffer [50 mM Tris-HCl pH 7.5, 150 mM NaCl, 1% Nonidet-P40, 0.5% Na-deoxycholate, 0.1% sodium dodecyl sulfate (SDS), 1.5 mM EDTA, 1.5 mM MgCl2, 2 mM Na-orthovanadate, 1 mM phenylmethylsulfonyl fluoride (PMSF), 10 µg/ml aprotinin and 10 µg/ml leupeptin] and left on ice for 15 minutes. The whole cell extract was then cleared by centrifugation (12,000×g for 10 minutes at 4 C), immediately boiled in reducing gel sample buffer, and resolved by 10% SDS PAGE before being transferred onto nitrocellulose. Filters were blocked in TBST buffer (0.02 M Tris-HCl pH 7.5, 0.15 M NaCl, 0.05% Tween-20) containing 1% milk for 40 minutes at 22 C, blotted with primary antibodies in TBST overnight at 4 C, followed by conjugation with a secondary antibody linked to horseradish peroxidase and subsequent detection by chemiluminescence (Amersham Corp.).
(§3) Evidently, NRG-4 binds to ErbB-4 and mediates cell proliferation through activation of this receptor. Because other ErbB ligands stimulate cell growth via tyrosine phosphorylation of their respective receptors and activation of the intervening mitogen-activated protein kinase (MAPK) cascade, these two signaling steps were tested in NRG-4-responsive myeloid cells expressing ErbB-4 (D4 and D24 cell lines). Cells were stimulated with 100 ng/ml of activating ligand for five minutes, followed by lysis and analysis by immunoblotting.

[2] = test system: 180-kDa ErbB receptors and MAP-kinase (Erk-1 and Erk-2) in D4 cells; experiment: as above; format: cell-based; conditions: 100 ng/ml, five minutes
Procedure: as §1, §2, §3

IgB-1 (soluble ErbB-1) = molecular target: T1, IgB-1 (soluble ErbB-1) (Homo sapiens, UniProt P00533); experiment: Covalent crosslinking of radiolabeled ligands to soluble ErbB-IgG fusion, cell-free; format: binding; conditions: 125I-labeled ligand, BS3 crosslinking
T1 construct: Recombinant soluble extracellular domains of the four ErbB proteins (denoted IgB-1 through 4); made in house; host or cells: HEK-293 human embryonic kidney cells (conditioned medium)

IgB-3 (soluble ErbB-3) = molecular target: T2, IgB-3 (soluble ErbB-3) (Homo sapiens, UniProt P21860); experiment: as above; format: binding; conditions: 125I-labeled ligand, BS3 crosslinking
T2 construct: Recombinant soluble extracellular domains of the four ErbB proteins (denoted IgB-1 through 4); made in house; host or cells: HEK-293 human embryonic kidney cells (conditioned medium)
T2 sequence (P21860 20-643 limits assumed): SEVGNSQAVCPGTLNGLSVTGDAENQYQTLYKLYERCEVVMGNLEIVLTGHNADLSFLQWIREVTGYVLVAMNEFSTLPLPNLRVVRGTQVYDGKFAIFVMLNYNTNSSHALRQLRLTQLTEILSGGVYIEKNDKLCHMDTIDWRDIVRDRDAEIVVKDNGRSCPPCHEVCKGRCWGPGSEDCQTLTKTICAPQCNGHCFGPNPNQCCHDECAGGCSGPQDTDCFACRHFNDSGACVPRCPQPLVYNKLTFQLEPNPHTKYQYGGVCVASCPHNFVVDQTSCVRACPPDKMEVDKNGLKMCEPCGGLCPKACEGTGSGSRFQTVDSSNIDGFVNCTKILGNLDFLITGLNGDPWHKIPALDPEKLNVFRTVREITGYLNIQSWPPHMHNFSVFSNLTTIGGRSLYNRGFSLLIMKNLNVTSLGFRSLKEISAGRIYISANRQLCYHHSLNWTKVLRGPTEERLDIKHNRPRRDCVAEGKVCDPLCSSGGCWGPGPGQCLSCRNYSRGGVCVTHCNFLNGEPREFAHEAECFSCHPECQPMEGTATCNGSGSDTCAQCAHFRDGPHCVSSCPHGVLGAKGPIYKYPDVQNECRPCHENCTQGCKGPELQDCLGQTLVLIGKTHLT
Procedure: (§4) The four soluble forms of ErbB proteins, in the form of IgG fusions (denoted IgB-1 through 4), were separately incubated with the indicated radiolabeled growth factors. Where indicated (lower panel), an excess (100-fold) of unlabeled NRG-4 was co-incubated with the labeled ligand. Following 2 hours at 22° C., the covalent crosslinking reagent bis(sulfosuccinimdyl)-suberate (BS^3) was added (1 mM) and 45 minutes later the ligand-receptor complexes were immunoprecipitated with agarose-immobilized protein-A beads. Arrows mark the locations of monomeric (M) and dimeric (D) receptor complexes.
(§5) Growth factors were labeled with Iodogen (Pierce) as described (Karunagaran et al., 1995). Chemical crosslinking to Chinese Hamster Ovary (CHO) cells engineered to express different ErbB combinations have been performed essentially as described (Tzahar et al., 1996). Briefly, radiolabeled ligands (at 100 ng/ml) were incubated for 2 hours with cell monolayers at 4 C. The chemical crosslinking agent BS^3 (1 mM) was then added and the cells were further incubated for 45 minutes at 22 C. Mouse antibodies were first coupled to rabbit anti-mouse IgG and to protein A-Sepharose beads, and then they were incubated with cell extracts for 2 hours at 4 C. Immunoprecipitated complexes were then washed three times with ice-cold SBN buffer (1% NP-40; 150 mM NaCl; 10% Glycerol; 1 mM EGTA, in 50 mM Tris-HCl, pH 7.4; 1 ml per wash) prior to heating (5 minutes at 95 C) in gel sample buffer, resolution by gel electrophoresis, transfer to nitrocellulose and autoradiography. For crosslinking with IgBs, after co-incubation of IgB-containing conditioned media with radiolabeled ligands, complexes were immunoprecipitated directly with Sepharose-protein A beads. For ligand displacement analyses, cell monolayers were washed once with binding buffer, and then incubated for 2 hours at 4 C with radiolabeled […] (5 ng/ml) and various concentrations of unlabeled ligands, as indicated. Non-specific binding was determined in the presence of a 100-fold molar excess of the unlabeled ligani. Cells were then washed, lysed in a solution containing 0.1 M NaOH and 0.1% SDS, and radioactivity determined by use of a gamma counter.
(§6) In the first assay, binding studies in a cell-free system were performed with recombinant soluble forms of all four ErbB proteins. The soluble proteins, denoted IgB-1 through 4, consist of a dimeric fusion between the extracellular domain of the corresponding ErbB and the Fc portion of a human immunoglobulin G (Chen et al., 1996).

IgB-4 (soluble ErbB-4) = molecular target: T3, IgB-4 (soluble ErbB-4) (Homo sapiens, UniProt Q15303); experiment: as above; format: binding
T3 construct: Recombinant soluble extracellular domains of the four ErbB proteins (denoted IgB-1 through 4); made in house; host or cells: HEK-293 human embryonic kidney cells (conditioned medium)
T3 sequence (Q15303 26-651 limits assumed): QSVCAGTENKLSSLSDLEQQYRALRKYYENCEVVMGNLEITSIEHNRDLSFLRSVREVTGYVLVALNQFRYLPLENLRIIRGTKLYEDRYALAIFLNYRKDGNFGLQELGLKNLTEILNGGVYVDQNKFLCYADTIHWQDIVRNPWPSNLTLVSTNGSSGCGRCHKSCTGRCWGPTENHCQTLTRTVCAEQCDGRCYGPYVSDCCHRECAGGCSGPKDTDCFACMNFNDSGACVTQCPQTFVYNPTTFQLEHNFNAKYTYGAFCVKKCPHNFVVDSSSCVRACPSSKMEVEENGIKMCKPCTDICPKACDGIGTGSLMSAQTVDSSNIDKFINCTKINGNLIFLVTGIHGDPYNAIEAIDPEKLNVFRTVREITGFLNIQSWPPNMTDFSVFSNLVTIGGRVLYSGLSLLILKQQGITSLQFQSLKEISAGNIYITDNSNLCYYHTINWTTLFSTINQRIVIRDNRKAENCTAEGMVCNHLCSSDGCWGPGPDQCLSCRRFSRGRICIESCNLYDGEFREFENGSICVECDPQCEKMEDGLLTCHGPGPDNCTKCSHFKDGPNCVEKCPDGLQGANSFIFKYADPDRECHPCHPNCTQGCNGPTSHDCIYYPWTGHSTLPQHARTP
Procedure: as §4, §5, §6

- binding to IgB-1 (covalent crosslinking signal) (IgB-1 (soluble ErbB-1)): low or no binding
- binding to IgB-3 (covalent crosslinking signal) (IgB-3 (soluble ErbB-3)): low or no binding
- binding to IgB-4 (covalent crosslinking signal) (IgB-4 (soluble ErbB-4); 125I-labeled ligand, BS3 crosslinking): only weakly
- displacement of the radioactive ligand from IgB-4 by unlabeled NRG-4 (IgB-4 (soluble ErbB-4); unlabeled NRG-4 at 100-fold molar excess): efficient displacement
B1: NRG-4: synthetic refolded mouse EGF-like domain of NRG-4 (residues 4 to 50, SEQ ID NO:2) (peptide, listed as Mus musculus)
chain: MPTDHEQPCGPRHRSFCLNGGICYVIPTIPSPFCRCIENYTGARCEEVFLPSSSIPSESNLSAAFVVLAVLLTLTIAALCFLCRKGHLQRASSVQCEISLVETNNTRTRHSHREH
- activation of MAP-kinase (Erk-1 and Erk-2), D24 cells [1]: accompanying activation of MAP-kinase
- phosphorylation of the 180-kDa ErbB receptors, D24 cells [1]: stimulated phosphorylation
- activation of MAP-kinase (Erk-1 and Erk-2), D4 cells [2]: accompanying activation of MAP-kinase
- phosphorylation of the 180-kDa ErbB receptors, D4 cells [2]: stimulated phosphorylation
